Test results as given in US20240262922A1 (Merck KGaA, published 2024).
Numbering of substitutions follows the chain as printed. Read-outs that look alike come from different tables or passages of the source.

What was measured:
[1] = molecular target: T1, recombinant human OX40L protein (R&D Systems, cat. #1054-OX) (human, UniProt P23510 51-183); assay: cell-based or functional assay
T1 sequence: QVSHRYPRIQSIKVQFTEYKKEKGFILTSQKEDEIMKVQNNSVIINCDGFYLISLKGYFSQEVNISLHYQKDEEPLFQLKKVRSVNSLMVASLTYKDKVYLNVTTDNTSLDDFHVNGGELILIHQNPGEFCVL

AVI-GST-His6-hOX40L [2] = molecular target: T2, AVI-GST-His6-hOX40L (human, UniProt P23510 51-183); assay: cell-based or functional assay
T2 sequence: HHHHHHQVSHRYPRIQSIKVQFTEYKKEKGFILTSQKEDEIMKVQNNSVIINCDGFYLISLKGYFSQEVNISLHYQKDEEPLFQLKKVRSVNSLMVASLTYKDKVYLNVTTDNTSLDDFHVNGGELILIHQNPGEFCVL

AVI-GST-His6-hOX40L [3] = molecular target: T2, AVI-GST-His6-hOX40L; assay: cell-based or functional assay; remark: listed apart in the source
[4] = molecular target: T1, recombinant human OX40L protein (R&D …); assay: SPR steady state, Biacore T200; OX40L immobilised on CM5, antibody in solution
Method: (§1) Recombinant OX40L proteins (human OX40L protein, R&D systems, cat. #1054-OX; cynomolgus monkey OX40L, Novoprotein cat. #CP72) were immobilized onto Biacore CM5 sensor chips and anti-OX40L antibodies were bound to this surface at a range of concentrations. The response at steady state was measured with a Biacore T200 instrument (GE Healthcare) and plotted against the concentration of antibody and fit to a 1:1 binding model. The steady state KD was determined as the antibody concentration at a response equal to half the maximal response (Rₘₐₓ).
Steady state affinity assay was performed as described in section 1.1.7 of Example 1.

mouse OX40L = molecular target: T3, mouse OX40L (mouse, UniProt P43488 51-198, limits assumed); assay: flow cytometry on CHO-S cells / ELISA on recombinant protein (sentence does not say which)
T3 sequence: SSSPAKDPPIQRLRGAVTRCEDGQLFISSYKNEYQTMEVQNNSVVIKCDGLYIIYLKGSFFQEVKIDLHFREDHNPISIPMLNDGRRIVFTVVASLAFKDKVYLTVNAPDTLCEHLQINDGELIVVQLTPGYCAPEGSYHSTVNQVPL

[5] = molecular target: T4, recombinant cynomolgus monkey OX40L (Novoprotein cat. #CP72) (cynomolgus monkey, UniProt P23510 51-183 (human entry), limits assumed); assay: flow cytometry on CHO-S-OX40L cells / ELISA on recombinant OX40L (sentence does not say which)
T4 construct: Bought protein; also called cynomolgus OX40L
T4 chain: T1 sequence with R5Q, K23E

[6] = molecular target: T1, recombinant human OX40L protein (R&D …); assay: cell-based or functional assay; remark: listed apart in the source
AVI-GST-His6-hOX40L [7] = molecular target: T2, AVI-GST-His6-hOX40L; assay: cell-based or functional assay; remark: listed apart in the source
AVI-GST-His6-hOX40L [8] = molecular target: T2, AVI-GST-His6-hOX40L; assay: cell-based or functional assay; remark: listed apart in the source
[9] = molecular target: T1, recombinant human OX40L protein (R&D …); assay: SPR steady state, Biacore T200; OX40L immobilised on CM5, FcFab in solution
Method: as §1
(§2) As with the IgG clones, binding affinity to human OX40L was determined for all twelve FcFabs using steady state affinity assay as described in section 1.1.7 of Example 1. […]

[10] = molecular target: T1, recombinant human OX40L protein (R&D …); assay: SPR steady state, Biacore T200; OX40L immobilised on CM5, antibody in solution; remark: listed apart in the source
Method: as §1, §2

[11] = molecular target: T1, recombinant human OX40L protein (R&D …); assay: cell-based or functional assay; remark: listed apart in the source
AVI-GST-His6-hOX40L [12] = molecular target: T2, AVI-GST-His6-hOX40L; assay: cell-based or functional assay; remark: listed apart in the source
AVI-GST-His6-hOX40L [13] = molecular target: T2, AVI-GST-His6-hOX40L; assay: cell-based or functional assay; remark: listed apart in the source
[14] = molecular target: T1, recombinant human OX40L protein (R&D …); assay: SPR steady state affinity to human OX40L
Method: as §1

[15] = molecular target: T1, recombinant human OX40L protein (R&D …); assay: SPR steady state, Biacore T200; OX40L immobilised on CM5, antibody in solution; remark: listed apart in the source
Method: as §1

B1: 97G07 (IgG) (antibody)
heavy: not shown
light: YYELTQPLSVSVALGQTARIPCGGNNIENKNVHWYQQKPGQAPVLVIYRDSNRPSGIPERFSGSNSGNTATLSINRAQAGDEADYYCQVWDSNTVIFGGGTKVTVLGQPKAAPSVTLFPPSSEELQANKATLVCLISDFYPGAVTVAWKADSSPVKAGVETTTPSKQSNNKYAASSYLSLTPEQWKSHKSYSCQVTHEGSTVEKTVAPTECS
Primary T cell activation assay IC50 [1]: 16.7 nM
OX40L neutralization/OX40-HEK Reporter IC50 (AVI-GST-His6-hOX40L [2]): 7.5 nM
IC50 (read off the curve) (AVI-GST-His6-hOX40L [3]): ~9 nM
Kd [4]: 16.6 nM
binding result (mouse OX40L): no binding
binding result [5]: binds

B2: 97G07 (FcFab) (antibody, IgG1)
heavy: EPKSSDKTHTCPPCPAPPVAGPSVFLFPPKPKDTLMISRTPEVTCVVVDVSHEDPEVKFNWYVDGVEVHNAKTKPREEQYNSTYRVVSVLTVLHQDWLNGKEYKCAVSNKALPSSIEKTISKAKGQPREPQVYTLPPSREEMTKNQVSLTCLVKGFYPSDIAVEWESNGQPENNYKTTPPVLDSDGSFFLYSKLTVDKSRWQQGNVFSCSVMHEALHNHYTQKSLSLSPGAGGGGSGGGGSGGGGSQLQLQESGPGLVKPSETLSLTCTVSGGSISSSSYYWGWIRQPPGKGLEWIGGIGSVDYSGNTYYKPSLKSRVTISVDTSKNQFSLKLSTVTAADTAVYHCARHRGIYFFDYWGQGTLVTVSSASTKGPSVFPLAPSSKSTSGGTAALGCLVKDYFPEPVTVSWNSGALTSGVHTFPAVLQSSGLYSLSSVVTVPSSSLGTQTYICNVNHKPSNTKVDKRVEPKSC
light: B1 light
notes: also called 97G07(2); anti-OX40L FcFab antibody 97G07
Primary T cell activation assay IC50 [6]: 4.6 nM
OX40L neutralization/OX40-HEK Reporter IC50 (AVI-GST-His6-hOX40L [7]): 6.2 nM
IC50 (read off the curve) (AVI-GST-His6-hOX40L [8]): ~6 nM
Kd [9]: 27.9 nM

B3: 84E11 (FcFab) (antibody)
heavy: EPKSSDKTHTCPPCPAPPVAGPSVFLFPPKPKDTLMISRTPEVTCVVVDVSHEDPEVKFNWYVDGVEVHNAKTKPREEQYNSTYRVVSVLTVLHQDWLNGKEYKCAVSNKALPSSIEKTISKAKGQPREPQVYTLPPSREEMTKNQVSLTCLVKGFYPSDIAVEWESNGQPENNYKTTPPVLDSDGSFFLYSKLTVDKSRWQQGNVFSCSVMHEALHNHYTQKSLSLSPGAGGGGSGGGGSGGGGSQLQLQESGPGLVKPSETLSLTCTVSGGSISSGSFYWGWIRQPPGKGLEWIGTIYYSGSTYYNPSLKSRVAISVDTSKNQFYLNLNFVTAADTAVYHCARERSSSWYPFDYWGQGTLVTVSSASTKGPSVFPLAPSSKSTSGGTAALGCLVKDYFPEPVTVSWNSGALTSGVHTFPAVLQSSGLYSLSSVVTVPSSSLGTQTYICNVNHKPSNTKVDKRVEPKSC
light: SSELTQDPAVSVALGQTVRITCQGDSLRNYFANWYQQKPGQAPVLVIYGKNNRPSGIPDRFSGSSSGNTASLTITGAQAEDEADYYCNSRDSSGYHVVFGGGTKLTVLGQPKAAPSVTLFPPSSEELQANKATLVCLISDFYPGAVTVAWKADSSPVKAGVETTTPSKQSNNKYAASSYLSLTPEQWKSHKSYSCQVTHEGSTVEKTVAPTECS
Primary T cell activation assay IC50 [6]: 15.2 nM
OX40L neutralization/OX40-HEK Reporter IC50 (AVI-GST-His6-hOX40L [7]): 57.2 nM
binding result [10]: no binding

B4: Ref1_Anti-OX40L (US Pat. No. 9,139,653) (antibody, V domains shown)
VH: EVQLVESGGGLVQPGGSLRLSCAASGFTFSNYAMNWVRQAPGKGLEWVSTISGSGGATRYADSVKGRFTISRDNSRNTVYLQMNSLRVEDTAVFYCTKDRLIMATVRGPYYYGMDVWGQGTTVTVSS
VL: DIQMTQSPSSLSASVGDRVTITCRASQSISSYLNWYQQKPGKAPNLLIYAASSLQSGVPSRFSGSGSETDFTLTISSLQPEDFATYYCQQSHSVSFTFGPGTKVDIK
Primary T cell activation assay IC50 [11]: 5.7 nM
OX40L neutralization/OX40-HEK Reporter IC50 (AVI-GST-His6-hOX40L [12]): 7.3 nM
IC50 (read off the curve) (AVI-GST-His6-hOX40L [13]): ~5 nM
Kd [14]: 31.9 nM
Kd [15]: 31.9 nM

B5: Ref2_Anti_OX40L (antibody, human IgG1, kappa, V domains shown)
VH: EVQLLESGGGLVQPGGSLRLSCAASGFTFNSYAMSWVRQAPGKGLEWVSIISGSGGFTYYADSVKGRFTISRDNSRTTLYLQMNSLRAEDTAVYYCAKDRLVAPGTFDYWGQGALVTVSS
VL: DIQMTQSPSSLSASVGDRVTITCRASQGISSWLAWYQQKPEKAPKSLIYAASSLQSGVPSRFSGSGSGTDFTLTISSLQPEDFATYYCQQYNSYPYTFGQGTKLEIKR
Primary T cell activation assay IC50 [11]: 9.3 nM
OX40L neutralization/OX40-HEK Reporter IC50 (AVI-GST-His6-hOX40L [12]): 6.6 nM
IC50 (read off the curve) (AVI-GST-His6-hOX40L [3]): ~3 nM
IC50 (read off the curve) (AVI-GST-His6-hOX40L [8]): ~6 nM
IC50 (read off the curve) (AVI-GST-His6-hOX40L [13]): ~4 nM
Kd [14]: 15 nM
Kd [15]: 15 nM

B6: 67B06 (IgG) (antibody)
heavy: not shown
light: SYELTQPLSVSVALGQTARMTCGGSDIENKNVHWYQQKPGQAPVLVIHRDNNRPSGIPERFSGSNSGNTATLTISRAQAGDEADYYCQVRDSNIVVFGGGTKLTVLGQPKAAPSVTLFPPSSEELQANKATLVCLISDFYPGAVTVAWKADSSPVKAGVETTTPSKQSNNKYAASSYLSLTPEQWKSHKSYSCQVTHEGSTVEKTVAPTECS
notes: also called 67B06 (IgG format)
Primary T cell activation assay IC50 [1]: 20.9 nM
OX40L neutralization/OX40-HEK Reporter IC50 (AVI-GST-His6-hOX40L [2]): 5.2 nM
IC50 (read off the curve) (AVI-GST-His6-hOX40L [3]): ~5 nM
Kd [4]: 12.7 nM
binding result (mouse OX40L): no binding
binding result [5]: binds

B7: 67B06 (FcFab) (antibody)
heavy: EPKSSDKTHTCPPCPAPPVAGPSVFLFPPKPKDTLMISRTPEVTCVVVDVSHEDPEVKFNWYVDGVEVHNAKTKPREEQYNSTYRVVSVLTVLHQDWLNGKEYKCAVSNKALPSSIEKTISKAKGQPREPQVYTLPPSREEMTKNQVSLTCLVKGFYPSDIAVEWESNGQPENNYKTTPPVLDSDGSFFLYSKLTVDKSRWQQGNVFSCSVMHEALHNHYTQKSLSLSPGAGGGGSGGGGSGGGGSQLQLQESGPGLVKPSETLSLTCSVSGGSISTSSYYWGWIRQPPGKGLEWSGSIYYSGSTYYRPSLQGRATISVDTSKNQFSLKLTSVTAADTAVYYCARHRGSYFFDIWGLGTLVTVSSASTKGPSVFPLAPSSKSTSGGTAALGCLVKDYFPEPVTVSWNSGALTSGVHTFPAVLQSSGLYSLSSVVTVPSSSLGTQTYICNVNHKPSNTKVDKRVEPKSC
light: B6 light
Primary T cell activation assay IC50 [6]: 7.2 nM
OX40L neutralization/OX40-HEK Reporter IC50 (AVI-GST-His6-hOX40L [7]): 5.5 nM
IC50 (read off the curve) (AVI-GST-His6-hOX40L [8]): ~6 nM
Kd [9]: 20.3 nM
